Data published in US20230055235, “ANTI-CANCER IMMUNOTHERAPEUTIC COMPOSITION FOR TREATING CANCER” (INTEROLIGO CORPORATION., published 2023).

Molecular target: PD-L1 (programmed death-ligand 1) (UniProt Q9NZQ7 Q9NZQ7:19-238)
Test: inhibition; PD-1/PD-L1 binding ELISA
Method: PD-1/PD-L1 binding inhibition of the synthetic fragment aptamer was determined by conducting a purified protein-based test. Purified protein-based PD-1/PD-L1 binding inhibition test (BPS, USA) was conducted by ELISA method based on horseradish peroxidase (HRP). First, purified PD-L1 protein according to the product manual was fixed on a 96 well plate, and then each well was washed with Immuno Buffer 1 for a total of 3 times in order to remove unbound PD-L1 protein. Aptamers were prepared in a selection buffer for each experimental concentration and slowly cooled from 95° C. to 37° C. by 0.1° C. per second. 5 μL of the aptamer was added to the well to which PD-L1 protein was fixed, followed by adding 20 μL of Biotin-bound PD-1 protein prepared according to the corresponding instructions to each well again. […] After adding 100 μL of the HRP substrate mixture to the well, from which the supernatant was removed, a fluorescent intensity was measured using a luminometer so as to determine the inhibition of PD-1/PD-L1 binding. IC₅₀ (50% inhibitory concentration) was calculated using the online tool.
Aptamer PD-1/PD-L1 binding inhibitory activity described in Table 6 of Example 1.3.1 was measured in the same manner as in Example 1.2.2.

Sequence of PD-L1 (programmed death-ligand 1) (Q9NZQ7 19-238, one chain of several): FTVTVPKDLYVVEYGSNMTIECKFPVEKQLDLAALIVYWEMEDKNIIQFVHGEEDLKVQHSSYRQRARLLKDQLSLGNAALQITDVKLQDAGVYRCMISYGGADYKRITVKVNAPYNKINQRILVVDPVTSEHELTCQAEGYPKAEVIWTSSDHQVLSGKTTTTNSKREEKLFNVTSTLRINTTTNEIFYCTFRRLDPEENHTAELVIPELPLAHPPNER

AAGTTTTTGATTGTACCTTAGTG (ssDNA, Bz-dU at every n) [PL021]
IC50: 27.7 nM
